Assay results: publication PMC2879519

What was measured:
Test in all cases: fluorescence quenching titration
[1] = molecular target: SMC2 hinge long (mSMC2h of mSMC2h4h-l);SMC4 hinge long (mSMC4h of mSMC2h4h-l) (mouse;mouse) (UniProt Q8CG48+Q8CG47)
[2] = molecular target: SMC2 hinge long (mSMC2h of mSMC2h4h-l);SMC4 hinge long (mSMC4h of mSMC2h4h-l) (mouse;mouse, UniProt Q8CG48;Q8CG47 492-680;581-766, |)
[3] = molecular target: SMC2 hinge long K566E;SMC4 hinge long (mSMC4h of mSMC2h4h-l) (mouse;mouse, UniProt Q8CG48;Q8CG47 492-680;581-766, K566E|)
[4] = molecular target: SMC2 hinge long K566E;SMC4 hinge long K657E (mouse;mouse, UniProt Q8CG48;Q8CG47 492-680;581-766, K566E|K657E)
[5] = molecular target: SMC2 hinge long K613E;SMC4 hinge long K698E (mouse;mouse, UniProt Q8CG48;Q8CG47 492-680;581-766, K613E|K698E)
Chain of SMC2 hinge long K613E;SMC4 hinge long K698E (Q8CG48 492-680 K613E, chain 1 of 2): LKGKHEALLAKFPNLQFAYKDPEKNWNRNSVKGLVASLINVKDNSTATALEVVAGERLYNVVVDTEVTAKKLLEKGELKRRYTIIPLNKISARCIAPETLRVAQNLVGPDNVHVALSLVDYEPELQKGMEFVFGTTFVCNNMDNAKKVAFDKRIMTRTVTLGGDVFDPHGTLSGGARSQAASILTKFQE
Chain of SMC2 hinge long K613E;SMC4 hinge long K698E (Q8CG47 581-766 K698E, chain 2 of 2): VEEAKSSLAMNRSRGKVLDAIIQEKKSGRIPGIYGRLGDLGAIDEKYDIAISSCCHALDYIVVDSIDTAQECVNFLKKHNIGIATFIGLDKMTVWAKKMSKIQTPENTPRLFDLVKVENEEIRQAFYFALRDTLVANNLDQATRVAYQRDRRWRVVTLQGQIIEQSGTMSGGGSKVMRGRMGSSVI

Chain of SMC2 hinge long (mSMC2h of mSMC2h4h-l);SMC4 hinge long (mSMC4h of mSMC2h4h-l) (mouse;mouse) (Q8CG48 492-680, chain 1 of 2): as the sequence (Q8CG48 492-680 K613E, chain 1 of 2) above, with E122K counted along it
Chain of SMC2 hinge long (mSMC2h of mSMC2h4h-l);SMC4 hinge long (mSMC4h of mSMC2h4h-l) (mouse;mouse) (Q8CG47 581-766, chain 2 of 2): as the sequence (Q8CG47 581-766 K698E, chain 2 of 2) above, with E118K counted along it
Chain of SMC2 hinge long (mSMC2h of mSMC2h4h-l);SMC4 hinge long (mSMC4h of mSMC2h4h-l) (Q8CG48 492-680, chain 1 of 2): as the sequence (Q8CG48 492-680 K613E, chain 1 of 2) above, with E122K counted along it
Chain of SMC2 hinge long (mSMC2h of mSMC2h4h-l);SMC4 hinge long (mSMC4h of mSMC2h4h-l) (Q8CG47 581-766, chain 2 of 2): as the sequence (Q8CG47 581-766 K698E, chain 2 of 2) above, with E118K counted along it
Chain of SMC2 hinge long K566E;SMC4 hinge long (mSMC4h of mSMC2h4h-l) (Q8CG48 492-680 K566E, chain 1 of 2): as the sequence (Q8CG48 492-680 K613E, chain 1 of 2) above, with K75E, E122K counted along it
Chain of SMC2 hinge long K566E;SMC4 hinge long (mSMC4h of mSMC2h4h-l) (Q8CG47 581-766, chain 2 of 2): as the sequence (Q8CG47 581-766 K698E, chain 2 of 2) above, with E118K counted along it
Chain of SMC2 hinge long K566E;SMC4 hinge long K657E (Q8CG48 492-680 K566E, chain 1 of 2): as the sequence (Q8CG48 492-680 K613E, chain 1 of 2) above, with K75E, E122K counted along it
Chain of SMC2 hinge long K566E;SMC4 hinge long K657E (Q8CG47 581-766 K657E, chain 2 of 2): as the sequence (Q8CG47 581-766 K698E, chain 2 of 2) above, with K77E, E118K counted along it

CATCCTGTCCGCTGC / TTTTTTTTTTTTTTTGCAGCGGACAGGATG [30-mer ds-ssDNA-5']
Kd [1]: 1770 nM

CATCCTGTCCGCTGC / GCAGCGGACAGGATGTTTTTTTTTTTTTTT [30-mer ds-ssDNA-3']
Kd [1]: 1550 nM

CATCCTGTCCGCTGC / CCGGAGAGCATCTCG / GCAGCGGACAGGATGTTTTTTTTTTTTTTTCGAGATGCTCTCCGG [45-mer ds-ss-dsDNA]
Kd [1]: 660 nM

B1: 15-mer ssDNA (ssDNA)
DNA: TTTTTTTTTTTTTTT
Kd [2]: 3210 ± 140 nM

B2: 30-mer ssDNA (ssDNA)
DNA: TTTTTTTTTTTTTTTTTTTTTTTTTTTTTT
Kd [2]: 450 ± 40 nM | Kd [3]: 1800 ± 80 nM | Kd [4]: 3260 ± 580 nM | Kd [5]: 2950 ± 300 nM
